Values quoted from earlier work, collected in paper PMC6899468.

Target: neuropilin-1 (Homo sapiens) (UniProt O14786)
Chain of UniProt O14786 (O14786 22-856): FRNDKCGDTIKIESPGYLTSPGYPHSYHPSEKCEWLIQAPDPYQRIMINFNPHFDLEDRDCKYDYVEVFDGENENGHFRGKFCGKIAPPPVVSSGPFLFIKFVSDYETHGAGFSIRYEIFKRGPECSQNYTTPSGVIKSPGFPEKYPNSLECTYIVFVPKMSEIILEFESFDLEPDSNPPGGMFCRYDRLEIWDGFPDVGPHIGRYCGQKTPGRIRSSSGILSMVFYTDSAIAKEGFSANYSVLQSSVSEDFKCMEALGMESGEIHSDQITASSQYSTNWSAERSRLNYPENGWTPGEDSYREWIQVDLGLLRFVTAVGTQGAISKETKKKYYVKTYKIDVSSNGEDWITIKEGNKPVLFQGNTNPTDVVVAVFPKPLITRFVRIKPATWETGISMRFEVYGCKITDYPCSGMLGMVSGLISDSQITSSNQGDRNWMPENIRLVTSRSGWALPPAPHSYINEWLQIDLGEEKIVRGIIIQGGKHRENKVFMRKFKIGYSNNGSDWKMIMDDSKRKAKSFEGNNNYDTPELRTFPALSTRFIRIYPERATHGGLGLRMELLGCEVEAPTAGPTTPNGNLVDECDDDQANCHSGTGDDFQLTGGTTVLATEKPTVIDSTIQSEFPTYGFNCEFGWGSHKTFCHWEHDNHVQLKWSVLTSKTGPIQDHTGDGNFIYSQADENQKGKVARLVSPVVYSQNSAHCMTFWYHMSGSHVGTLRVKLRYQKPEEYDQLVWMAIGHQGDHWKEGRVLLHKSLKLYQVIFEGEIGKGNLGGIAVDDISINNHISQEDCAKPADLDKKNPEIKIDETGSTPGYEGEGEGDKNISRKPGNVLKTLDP

- Kd: 3.49 nM
Substance: chromogranin A fragment hCgA1-373 1-373 (from UniProt P10645)
